Laboratory results taken from paper PMC3479198 (Nucleic Acids Research, 2012).

Target: the molecule itself
Assay: electron microscopy

B1: Helicobacter pylori DnaA protein (natural protein, H. pylori, UniProt O26057 1-457, looked up)
chain: MDTNNNIEKEILALVKQNPKVSLIEYENYFSQLKYNPNASKSDIAFFYAPNQVLCTTITAKYGALLKEILSQNKVGMHLAHSVDVRIEVAPKIQINAQSNINYKAIKTSVKDSYTFENFVVGSCNNTVYEIAKKVAQSDTPPYNPVLFYGGTGLGKTHILNAIGNHALEKHKKVVLVTSEDFLTDFLKHLDNKTMDSFKAKYRHCDFFLLDDAQFLQGKPKLEEEFFHTFNELHANSKQIVLISDRSPKNIAGLEDRLKSRFEWGITAKVMPPDLETKLSIVKQKCQLNQITLPEEVMEYIAQHISDNIRQMEGAIIKISVNANLMNASIDLNLAKTVLEDLQKDHAEGSSLENILLAVAQSLNLKSSEIKVSSRQKNVALARKLVVYFARLYTPNPTLSLAQFLDLKDHSSISKMYSGVKKMLEEEKSPFVLSLREEIKNRLNELNDKKTAFNSSE
binding result: binds
